What was measured:
[1] = molecular target: α9β1 integrin on mouse RAW macrophage cells (mouse) (UniProt B8JK39); assay: cell-based or functional assay
[2] = molecular target: α4β1 integrin on mouse B16 melanoma cells and mouse RAW macrophage cells (mouse) (UniProt Q00651); assay: cell-based or functional assay
Sequence of α4β1 integrin on mouse B16 melanoma cells and mouse RAW macrophage cells (mouse) (Q00651 41-1039, chain 1 of 2): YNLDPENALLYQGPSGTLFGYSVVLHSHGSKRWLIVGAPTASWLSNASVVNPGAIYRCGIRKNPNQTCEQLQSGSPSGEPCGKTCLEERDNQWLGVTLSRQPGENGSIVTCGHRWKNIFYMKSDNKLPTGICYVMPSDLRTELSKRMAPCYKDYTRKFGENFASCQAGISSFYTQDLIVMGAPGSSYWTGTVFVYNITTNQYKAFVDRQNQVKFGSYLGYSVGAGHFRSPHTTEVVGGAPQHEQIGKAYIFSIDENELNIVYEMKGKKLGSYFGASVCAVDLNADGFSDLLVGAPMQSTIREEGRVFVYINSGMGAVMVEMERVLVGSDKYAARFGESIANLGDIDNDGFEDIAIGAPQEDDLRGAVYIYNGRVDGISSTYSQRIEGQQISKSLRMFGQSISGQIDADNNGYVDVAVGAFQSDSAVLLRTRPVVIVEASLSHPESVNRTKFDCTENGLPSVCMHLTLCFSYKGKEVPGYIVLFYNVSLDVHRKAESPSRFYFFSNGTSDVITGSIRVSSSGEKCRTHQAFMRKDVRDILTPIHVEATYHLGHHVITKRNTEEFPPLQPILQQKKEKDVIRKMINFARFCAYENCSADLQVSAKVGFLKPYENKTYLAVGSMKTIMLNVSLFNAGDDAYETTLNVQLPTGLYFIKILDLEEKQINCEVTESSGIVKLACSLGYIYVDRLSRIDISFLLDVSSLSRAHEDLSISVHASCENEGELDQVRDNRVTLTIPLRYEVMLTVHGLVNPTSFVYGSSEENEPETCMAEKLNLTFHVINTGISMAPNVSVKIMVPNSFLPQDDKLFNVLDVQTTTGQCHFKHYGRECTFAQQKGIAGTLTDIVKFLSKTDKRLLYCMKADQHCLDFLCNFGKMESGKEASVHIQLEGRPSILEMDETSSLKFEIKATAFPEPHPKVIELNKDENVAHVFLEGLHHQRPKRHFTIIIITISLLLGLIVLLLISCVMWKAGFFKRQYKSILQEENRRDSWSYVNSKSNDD
Sequence of α4β1 integrin on mouse B16 melanoma cells and mouse RAW macrophage cells (mouse) (P09055 21-798, chain 2 of 2, further chain): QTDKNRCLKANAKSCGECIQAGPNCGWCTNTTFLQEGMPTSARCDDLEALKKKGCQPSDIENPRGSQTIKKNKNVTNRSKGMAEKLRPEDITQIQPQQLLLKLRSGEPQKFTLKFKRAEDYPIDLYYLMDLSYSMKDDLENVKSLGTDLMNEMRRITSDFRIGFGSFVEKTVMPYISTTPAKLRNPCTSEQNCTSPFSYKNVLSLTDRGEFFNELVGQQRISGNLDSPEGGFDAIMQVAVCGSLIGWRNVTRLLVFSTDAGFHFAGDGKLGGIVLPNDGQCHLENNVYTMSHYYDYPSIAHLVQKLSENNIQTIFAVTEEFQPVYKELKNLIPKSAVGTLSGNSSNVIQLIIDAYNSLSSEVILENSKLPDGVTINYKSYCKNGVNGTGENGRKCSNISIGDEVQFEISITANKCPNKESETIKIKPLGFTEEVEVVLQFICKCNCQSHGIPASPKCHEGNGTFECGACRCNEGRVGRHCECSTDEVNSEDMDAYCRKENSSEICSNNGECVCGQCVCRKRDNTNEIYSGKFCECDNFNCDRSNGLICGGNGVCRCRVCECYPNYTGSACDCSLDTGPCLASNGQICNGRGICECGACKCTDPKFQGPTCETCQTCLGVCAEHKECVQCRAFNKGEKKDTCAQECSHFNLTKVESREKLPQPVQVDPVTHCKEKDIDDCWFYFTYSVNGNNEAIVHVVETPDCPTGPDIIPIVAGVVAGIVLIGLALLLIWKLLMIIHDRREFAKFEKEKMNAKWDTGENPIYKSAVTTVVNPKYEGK

Sequence of α9β1 integrin on mouse RAW macrophage cells (mouse) (B8JK39 29-1036, chain 1 of 2): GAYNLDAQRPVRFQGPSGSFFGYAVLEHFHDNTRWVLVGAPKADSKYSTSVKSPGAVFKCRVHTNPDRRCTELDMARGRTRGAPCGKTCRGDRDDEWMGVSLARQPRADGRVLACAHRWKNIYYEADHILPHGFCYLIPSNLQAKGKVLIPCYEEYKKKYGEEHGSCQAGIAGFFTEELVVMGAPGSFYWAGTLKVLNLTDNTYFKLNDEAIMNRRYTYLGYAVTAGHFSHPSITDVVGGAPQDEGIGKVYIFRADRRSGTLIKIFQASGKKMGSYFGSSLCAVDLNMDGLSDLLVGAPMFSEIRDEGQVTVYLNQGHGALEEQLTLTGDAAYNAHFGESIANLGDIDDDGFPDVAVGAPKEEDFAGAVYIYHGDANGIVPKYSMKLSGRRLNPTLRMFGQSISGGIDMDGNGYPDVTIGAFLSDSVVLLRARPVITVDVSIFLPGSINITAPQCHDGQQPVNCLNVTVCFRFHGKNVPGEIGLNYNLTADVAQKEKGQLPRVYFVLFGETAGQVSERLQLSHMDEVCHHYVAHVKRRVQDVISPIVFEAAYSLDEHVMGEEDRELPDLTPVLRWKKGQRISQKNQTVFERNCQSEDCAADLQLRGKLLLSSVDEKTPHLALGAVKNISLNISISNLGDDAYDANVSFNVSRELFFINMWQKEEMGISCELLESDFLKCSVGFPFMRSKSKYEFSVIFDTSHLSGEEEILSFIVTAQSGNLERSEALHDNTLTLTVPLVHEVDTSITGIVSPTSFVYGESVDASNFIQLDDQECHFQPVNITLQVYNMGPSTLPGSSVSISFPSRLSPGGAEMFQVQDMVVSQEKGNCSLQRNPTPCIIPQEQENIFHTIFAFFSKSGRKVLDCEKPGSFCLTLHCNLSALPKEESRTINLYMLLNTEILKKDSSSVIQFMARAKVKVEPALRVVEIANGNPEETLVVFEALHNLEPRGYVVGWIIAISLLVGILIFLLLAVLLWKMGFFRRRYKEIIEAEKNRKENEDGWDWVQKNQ
Sequence of α9β1 integrin on mouse RAW macrophage cells (mouse) (P09055 21-798, chain 2 of 2, further chain): as the sequence (P09055 21-798, chain 2 of 2, further chain) above

**Q.** With “OPN-RRAA (OPN-R in which the RGD sequence has been mutated to RAA) (ligand)” as the substance, how does the PGE2 secretion in RAW cells [1] read?
**A.** 4.2 fold

**Q.** And the PGE2 secretion in RAW cells [2]?
**A.** 4.2 fold

Source: US20230255948A1
